Reference: publication PMC2864300, “Regulation of NOXO1 Activity through Reversible Interactions with p22^phox and NOXA1” (PLoS ONE, 2010)
Values belong to the substance of their own block, whether it stands above or below them.

Tests used:
[1] = biological target: human NOXO1 SH3AB–E triple mutant (proline residues 323, 326 and 329 to alanine) (human); test: ITC; MicroCal VP-ITC, 18°C; 150 mM NaCl, 1 mM DTT, 50 mM HEPES pH 7.4; typically 20–40 µM protein in the cell, 200–300 µM ligand injected; single-site binding model; averaged over three to five experiments
[2] = biological target: human NOXO1 SH3AB–E (tandem SH3 domains plus the C-terminal portion of NOXO1) (human); test: as above
[3] = biological target: human NOXO1 tandem SH3 domains (SH3AB) (human); test: as above
[4] = biological target: mouse NOXO1 tandem SH3 domains (SH3AB) (mouse); test: as above
[5] = biological target: p67phox C-terminal SH3 (Homo sapiens) (UniProt P19878); details: cited from earlier work
[6] = biological target: p22phox cytoplasmic domain (Homo sapiens) (UniProt P13498); details: cited from earlier work
p22phox cytoplasmic domain (Homo sapiens), sequence (P13498 132-195): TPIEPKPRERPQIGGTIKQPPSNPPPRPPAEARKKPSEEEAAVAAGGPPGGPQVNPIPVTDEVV

p47phox tandem SH3, sequence (P14598 156-285): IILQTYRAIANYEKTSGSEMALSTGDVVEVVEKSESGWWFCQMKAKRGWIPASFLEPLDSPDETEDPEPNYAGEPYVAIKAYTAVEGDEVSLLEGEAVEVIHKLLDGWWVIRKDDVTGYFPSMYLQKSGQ
p47phox C-terminal proline-rich region, sequence (P14598 359-390): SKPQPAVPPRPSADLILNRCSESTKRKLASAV
p67phox C-terminal SH3 (Homo sapiens), sequence (P19878 457-516): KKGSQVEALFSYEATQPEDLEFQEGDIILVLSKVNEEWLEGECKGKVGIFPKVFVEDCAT

- Kd [1]: 530 nM
- dH [1]: -8.1 kcal/mol
- dH [2]: -3.2 kcal/mol
- Kd [3]: 150 nM
- dH [3]: -16.8 kcal/mol
Substance: human p22^phox cytoplasmic domain (p22^phoxC) (domain or fragment)

- Kd [4]: 68 nM
- dH [4]: -12.9 kcal/mol
Substance: mouse p22^phox cytoplasmic domain (p22^phoxC) (from UniProt Q61462 127-192) (domain or fragment)

Substance: p47phox C-terminal proline-rich region (from UniProt P14598)
- Kd [5]: 20 nM

Substance: p47phox tandem SH3 (from UniProt P14598)
- Kd [6]: 190 nM
